# Assay results as given in US20240181075A1 (published 2024).
# B1: HA22 (antibody, V domains shown)
# VH: EVQLVESGGGLVQPGGSLRLSCAASGFTFSSYNMNWVRQAPGKGLEWVSYISSSSSTIYYADSVKGRFTISRDNAKNSLSLQMNSLRDEDTAVYYCARAYYYGMDVWGQGTTVTVSS
# VL: DIQMTQSPSSVSASVGDRVTITCRASQGISGWLAWYQQKPGKAPKFLIYAASTLQSGVPSRFSGSGSGTDFTLTISSLQPEDFATYYCQQANSFPPTFGGGTKVEIK
# B2: HA22 (Enfortumab), human monoclonal anti-Nectin-4 antibody (antibody, V domains shown)
# VH: B1 VH
# VL: B1 VL
# B3: Ch-15A7.5 (antibody, V domains shown)
# VH: EVKLVESGGGLVQPGGSRKLSCAASGFTFSNYGMAWVRQAPGKGPEWVAFISNLAYGINYADTVTGRFTISRENAKNTLYLEMRSLRSEDTAMYYCARGARATGWFAYWGQGTLVTVSA
# VL: DIVMTQSQKFMSTSIGDRVSVTCKASQNVDTHVAWYQEKPGQSPKALIYSASYRYSGVPDRFTGSGSGTDFTLTISNVQSEDLADYFCQQYNSYPLTFGGGTKLEIK
# B4: Ch-15A7.5 (chimeric anti-Nectin-4 monoclonal antibody 15A7.5) (antibody, V domains shown)
# VH: B3 VH
# VL: B3 VL
# B5: Ch-3A1.4 (antibody, V domains shown)
# VH: DVQLQESGPSLVKPSQTLSLTCSVTGDSITSGYWNWIRKFPGNKLEYMGYISNSGITYYNPSLKSRISITRDTSKNQYFLQLNSVTAEDTATYYCTRFGSTMILYYTMDYWGQGTSVTVSS
# VL: DIVMTQSPVTLSVTPGDRVSLSCRASQSISDYLHWYQQKSQESPRLLIKYASKSISGIPSRFSGSGSGSNFTLSINSVEPEDVGVYYCQNGHSFPLTFGAGTKLELK
# B6: Ch-5A12.2 (antibody, V domains shown)
# VH: QIQLQQSGAELVKPGASVTLSCKTSGFTFNSMYISWLKQKPGQSLEWIAWIYAGTGGTRFNQKFTGKVQLTVDTSSSTAYMQFSSLTTDDSAIYYCAIRSGFVPMDYWGQGTSVTVSS
# VL: SIVMTQTPKFLLVSAGDRVTITCKASQSVSNDVAWYQQKPGQSPKLLIYYASNRYTGVPDRFTGSGYGTDFTFTISTVQAEDLAVYFCQQDYSSPWTFGGGTKLEIK
# B7: Ch-5A12.2 (chimeric anti-Nectin-4 monoclonal antibody 5A12.2) (antibody, V domains shown)
# VH: B6 VH
# VL: B6 VL
# Experiments:
# Rat N4 [1] = experiment: flow cytometry, transfected CHO cells
# Mouse N4 [2] = experiment: flow cytometry, transfected CHO cells
# Monkey N4 = experiment: flow cytometry, transfected CHO cells
# [3] = molecular target: T1, human Nectin-4 on cells (CHO cells transfected with human Nectin-4 cDNA); SUM190 tumor cells; normal … (human, UniProt Q96NY8 32-510); experiment: flow
# T1 chain: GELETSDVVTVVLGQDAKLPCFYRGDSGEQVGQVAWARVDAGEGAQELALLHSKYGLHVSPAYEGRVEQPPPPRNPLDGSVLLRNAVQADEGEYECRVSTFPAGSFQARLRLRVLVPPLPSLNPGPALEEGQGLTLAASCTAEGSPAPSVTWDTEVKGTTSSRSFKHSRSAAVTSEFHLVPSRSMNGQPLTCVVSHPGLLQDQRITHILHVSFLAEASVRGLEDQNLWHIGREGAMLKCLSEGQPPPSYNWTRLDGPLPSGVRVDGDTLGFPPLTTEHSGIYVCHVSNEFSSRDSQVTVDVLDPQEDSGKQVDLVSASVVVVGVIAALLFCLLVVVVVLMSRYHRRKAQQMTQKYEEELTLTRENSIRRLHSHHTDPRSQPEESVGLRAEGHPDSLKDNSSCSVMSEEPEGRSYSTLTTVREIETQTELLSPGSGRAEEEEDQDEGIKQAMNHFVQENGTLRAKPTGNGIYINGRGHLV
# Rat N4 [4] = experiment: flow cytometry, transfected CHO cells; ambiguous fit
# Mouse N4 [5] = experiment: as above
# [6] = molecular target: T1, human Nectin-4 on cells (CHO cells …); experiment: flow cytometry, transfected CHO cells
binder,measurement,setting,value
B1,EC50,Rat N4 [1],0.097 nM
same,EC50,Mouse N4 [2],41.1 nM
same,EC50,Monkey N4,0.0678 nM
B2,EC50,[3],0.346 nM
B3,EC50,Rat N4 [4],~5.16 nM
same,EC50,Mouse N4 [5],~31.2 nM
same,EC50,Monkey N4,1.22 nM
B4,EC50,[6],0.692 nM
B5,EC50,[6],2.83 nM
B6,EC50,Mouse N4 [5],~205 nM
same,EC50,Rat N4 [1],0.478 nM
same,EC50,Monkey N4,0.134 nM
B7,EC50,[6],0.37 nM
